Publication PMC9712689 (Communications Biology, 2022)

T1: RlpA-Δ32, fluorescently labeled (P. aeruginosa PAO1, UniProt Q9X6V6 32-342, amine reactive RED-NHS dye)
T1 construct: source: E. coli BL21-star (DE3), purified (Ni-NTA), labelled with RED-NHS dye
T1 sequence: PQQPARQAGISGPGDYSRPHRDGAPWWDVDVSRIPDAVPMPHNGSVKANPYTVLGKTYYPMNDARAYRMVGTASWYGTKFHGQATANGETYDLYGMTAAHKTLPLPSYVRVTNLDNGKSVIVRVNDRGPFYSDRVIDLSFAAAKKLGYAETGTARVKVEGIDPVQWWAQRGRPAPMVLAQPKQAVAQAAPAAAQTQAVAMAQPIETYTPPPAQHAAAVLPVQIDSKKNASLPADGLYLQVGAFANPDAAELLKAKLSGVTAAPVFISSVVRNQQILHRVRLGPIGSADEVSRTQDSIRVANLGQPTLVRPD

T2: RlpA-Δ32·MltF2 complex (MST) (P. aeruginosa PAO1, UniProt Q9X6V6;Q9HZY1, amine reactive RED-NHS dye)
T2 sequence 1: T1 sequence
T2 sequence 2: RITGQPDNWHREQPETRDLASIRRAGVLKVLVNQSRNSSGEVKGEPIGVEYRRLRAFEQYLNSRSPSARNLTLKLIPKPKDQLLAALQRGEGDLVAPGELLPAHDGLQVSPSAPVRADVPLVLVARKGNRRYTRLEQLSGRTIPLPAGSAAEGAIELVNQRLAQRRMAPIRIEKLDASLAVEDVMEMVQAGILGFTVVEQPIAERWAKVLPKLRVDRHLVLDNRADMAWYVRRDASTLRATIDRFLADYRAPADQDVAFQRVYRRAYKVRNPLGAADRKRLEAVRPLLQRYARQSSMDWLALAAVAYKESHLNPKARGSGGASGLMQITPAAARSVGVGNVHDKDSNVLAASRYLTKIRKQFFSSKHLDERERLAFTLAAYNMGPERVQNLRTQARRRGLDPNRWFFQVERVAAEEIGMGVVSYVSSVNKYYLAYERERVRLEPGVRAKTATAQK

T3: RlpA-Δ32 (P. aeruginosa PAO1, UniProt Q9X6V6 32-342)
T3 construct: source: E. coli BL21-star (DE3), purified (Ni-NTA)
T3 sequence: T1 sequence

B1: SltB1 (enzyme, P. aeruginosa PAO1, UniProt Q9HX24 1-340, looked up)
chain: GDYDGSPQVAEFVSEMTRDYGFAGEQLMGLFRDVNRKQSILDAISRPAERVKQWKEYRPIFISDARISRGVDFWNKHAEDLARAEKEYGVPAEIIVSIIGVETFFGRNTGSYRVMDALSTLGFDYPPRADFFRKELREFLLLAREQQVDPLSLTGSYAGAMGLPQFMPSSFRAYAVDFDGDGHINIWSDPTDAIGSVASYFKQHGWVTGEPVVSVAEINDESAESAVTRGVDPTMSLGELRARGWRTHDALRDDQKVTAMRFVGDKGIEYWVGLPNFYVITRYNRSAMYAMAVYQLAGEIARARGAH
B2: PilA (natural protein)
chain: PQYQNYVARSEGASALATINPLKTTVEESLSRGIAGSKIKIGTTASTATETYVGVEPDANKLGVIAVAIEDSGAGDITFTFQTGTSSPKNATKVITLNRTADGVWACKSTQDPMFTPKGCDN
notes: source: E. coli, purified (Ni-NTA or Strep-Tactin)
B3: PBP7 (enzyme, P. aeruginosa PAO1, UniProt P72161 24-310, looked up)
chain: SPPPKAGLPLQQELASGSALVTDQNTGKVLYSRNPDLVVPIASITKLMTAMVVLDSKLPLDEVLPIAISETSEMRGVFSRVRVGSQISRRDMLLLALMSSENRAAASLAQNYPGGKNAFVKAMNAKAHALGMKNTRYVEPTGLSLHNVSTARDLTRLLVASRQYPLLSQWSTTPEKTVAFRHPNYTLGFRNTNHLINNKTWNIQLTKTGFTNEAGHCLVMRTTINRSPVNLVVLDAFGKYTHFADATRLRRWLETGQVTAIPAAAKAYRLQRDRERGLGQPVAQAVR
B4: MltA (enzyme, P. aeruginosa PAO1, UniProt Q9I4B6 1-385, looked up)
chain: DDGKKEPPPKPAEVTTYNSVPWDALPATSDADLLAGFNAWRSACARLAKDPVWGEPCASATTVAADPTAVRAFLQERMQVYSLRSSSNGDQGLITGYYEPVYHGSLSQGEKTPVPVYGVPDDLVVVALESVYPELKGKRLRGRLEGRVLKPYDDAATIRDNGSSAPVLAWLGDPMDLQFLQIQGSGRIQLEDGRQLRIGYGDQNGHPYKPVGRWLVEQGLVPKEEISMKRIRDWAEANPQRVSELLASNPSFVFFSLRPDSDEGPRGSLNVPLTDGYSVAIDRKVIPLGSLMWLSTTRPDDGSAVVRPVAAQDTGGAIVGEVRADLFWGTGDAAGELAGHMKQPGRLWLLWPKGAPLPAS
B5: LptE (natural protein)
chain: not shown
B6: MltB (enzyme, P. aeruginosa PAO1, UniProt Q9HVX3 1-367, looked up)
chain: SSEPTPPPKPAAKPQARTVISPRPVRQSVQPILPLRGDYANNPAAQHFIDRMVSQHGFNRQQLHDLFAQTQRLDWVIRLMDRQAPTYTPPSGPNGAWLRYRKKFVTPGNVQNGVLFWDQYETDLQRASRVYGVPPEIIVGIIGVETRWGRVMGKTRIIDALSTLSFSYPRRAEFFSGELEQFLLQARKEGTDPLALRGSYAGAMGYGQFMPSSFTKYAVDFDGDGHIDLWNPRDAIGSVANYFKQHGWVSGDRVAVPASGRAPSLEDGFKTLYPLDVLASAGLRPQGPLGGHRQASLLRLDMGRNYQYWYGLPNFYVITRYNHSTHYAMAVWELGKEVDRVRHRSVVRQD
B7: MltF (enzyme, P. aeruginosa PAO1, UniProt Q9HXN1 33-490, looked up)
chain: PTALERVQKEGVLRVITRNSPATYFQDRNGETGFEYELAKRFAERLGVELKIETADNLDDLYAQLSREGGPALAAAGLTPGREDDASVRYSHTYLDVTPQIIYRNGQQRPTRPEDLVGKRIMVLKGSSHAEQLAELKKQYPELKYEESDAVEVVDLLRMVDVGDIDLTLVDSNELAMNQVYFPNVRVAFDFGEARGLAWALPGGDDDSLMNEVNAFLDQAKKEGLLQRLKDRYYGHVDVLGYVGAYTFAQHLQQRLPRYESHFKQSGKQLDTDWRLLAAIGYQESLWQPGATSKTGVRGLMMLTNRTAQAMGVSNRLDPKQSIQGGSKYFVQIRSELPESIKEPDRSWFALAAYNIGGAHLEDARKMAEKEGLNPNKWLDVKKMLPRLAQKQWYAKTRYGYARGGETVHFVQNVRRYYDILTWVTQPQMEGSQIAESGLHLPGVNKTRPEEDSGDEKL
B8: SltB2 (enzyme, P. aeruginosa PAO1, UniProt Q9I4G6 1-398, looked up)
chain: QPDASSFPSCLAGLQKKAQAQGISADSYERFTSGLQADLSVLDLLDAQPEFTTPLWDYLAGLVDEQRVSDGKAMLAQHDKLLDQVAARYGVDKYTVVAVWGVESDYGRIFGKRPLLTSLSTLSCYGRRQSFFQGEFLATLKLLQAGDIRDAGITGSWAGAFGHTQFMPSTYARIAVDFDGDGRRDLVGSVPDALGSTANYLKKAGWRTGQPWGYEVKVPADFPASLAGRGKRQPLSAWVARGVRRVDGQPLPGGDEKAAILLPAGAQGPAFLVYRNYDAIYSYNAAESYALAIALLSDRLRGGSGLVASWPTDDPGISRLERKQLQKALLARGYDIGEADGLIGTSTRKAIQAEQKRLGLTPADGRAGRKILEALKGAQP
B9: MltD (enzyme, P. aeruginosa PAO1, UniProt Q9I2T2 1-534, looked up)
chain: QGSGQIKGEAQAKAARPGARAVDVQFNPSWLHTQPGQNAAYNDIWDRMRDGFQLQDAISTNPRIERQRLWFLSNQSFLEQSSARGSLYMHYVVERLEERNMPLELALLPVIESAYNPFALSRSNAAGLWQFIPATGQHFNLRQTNFYDGRRDITASTNAALTYLERLHDMFNGDWMLALAAYNAGEGTVSRAIERNEKLGLPTDYWNLPLPQETQDYVPKLLALSQIVMAPDSYGISLNPINNEPYFQAVRVKRGIDLSSVAALANLDEDELYQLNPAYKRRVTMDGPQQLLVPMEKAAFLTASLDTLKPKEVTAWQQYRVRSGDSLHSIANRYRITVAELKSANRLSSNHLRKGQQLSIPGQIAGGAVKPVYQQLARQASTPARTRSYKVKNGDSLWQIARNNGVDVNDLKRWNGLDKHALKVGQTLKLQGGTQALAARKGNAAGKRDSATYYKVKQGDSMYLIAKRFNVEMKHLQRWNPRSKQALKPGQTLTLYLDTASR
B10: PBP4 (enzyme, P. aeruginosa PAO1, UniProt Q9HZG1 1-476, looked up)
chain: QVNATLPANVQKALQTNKLTGNDLSLVLIPLDGPGNPTYYNADVSVNPASTMKLFTTYAALEMLGPTYQWKTEFYTDGQLKNGVLNGNLYLKGGGDPKLNMEKLWLLMRDLRANGVTKVTGDLVLDRSYFNIPQLPVFNDDGGDDTKPFLVGPDSLLVNLKSVRMVVRTDGNKVNVQMDPPLANVRIDNQVKMTAPATCPAWPKLRFSPVTQFDGTTLLATGQIPQGCSAQTYMSLLDHPGYTAGAVRGIWQELGGSILGKDRQGSVPRNATLIAKAFSPDLVEIIRDINKYSNNTMARQLFLSIGAQFRNSADGDDAQAAQRVVRQWLARKGITAPRLVMENGSGLSRQERVSAREMAAMLQAAWHSPYAAEYISSLPLAGLDGTMRKRLRRTALVGEAHVKTGTLNTVRALAGFSRDASGHNWVVVAILNSPRPWGASAILDQVLLSLHARK
B11: TypA (natural protein, P. aeruginosa PAO1, UniProt Q9HU67 1-605, looked up)
chain: MIENLRNIAIIAHVDHGKTTLVDKLLKLSGTLDRKEAESERVMDSNDQEKERGITILAKNTAIKWNGYNINIVDTPGHADFGGEVERVMSMVDSVLLVVDAQDGPMPQTRFVTQKAFKAGLRPIVVVNKIDRPGARPDWVIDQIFDLFDNLGATDEQLDFPIVYASALNGIAGLDHEKMDDNMDALFQAIIDHVPAPVVDTEGPFQMQISQLDYNSFLGVIGIGRITRGKVKSNTPVVAISDDGSKRNGRILKIMGHHGLQRVEVAEAEAGDIVCVSGMEELFISDTLCDPQNVEALPPLTVDQPTVSMTFQVNDSPFAGREGKFVTSRNIKERLEKELLHNVALRVEPGDSPEKFKVSGRGELHLSVLIETMRREGFELAVGRPEVVIIEKDGEKQEPYENVTIDIEEQHQGSVMEQMGLRKGDLSNMIPDGKGRVRLEYTIPARGLIGFRNNFLTLTSGTGILTSTFSHYGPIKAGEVSNRQNGVLVSMATGTALTYSLETLQSRGKLFLGPGDEIYEGQLAGINSRDNDLVINPTKGKKLDNMRASGKDEVIALVPPIRFTLEQALEFIADDELVEVTPKSIRLRKKMLNENDRKRYERSKV
B12: AlgO (natural protein)
chain: STAVSVGSAQNSWDSLQPDREQVIASLNVVELLKRHHYNKPPLNDERSAKIYDSYLKMLDPARMYFTAGDIAEFDRWRNRFDDFLKSGDLDPGFVIYKRHLDRLKGRLDYALAMLDKGVDKIDFSVDESLLIDREKAPWAKDTAELDDLWRKKVKDEVLRLKITGKDDKAIQEQLTKRYKNQLSRLKQTRSEDIFQAYINAFAQSYDPHTQYLSPDNAENFDINMSLSLEGIGAVLQSDNDYVKVVRLVPAGPAAKSKQIATSDKIIGVAQGKGEMVDVVGWRLDEVVKLIRGPKGSQVRLEVIPASNAPNDQTSKIVAITREAVKLEDQAAKKSIIKVDHEGRSYKLGVIDLPAFYLDFKAYRAGDPNYKSTTRDVKKLVAELQKDKVDGIVLDLRNNGGGSLQEATELTGLFIDQGPTVLVRNSDGRVDVLNDDEGKAFYTGPLAVLVNRLSASASEIFAGAMQDYHRALILGGQTFGKGTVQTIQPLNHGELKLTLAKFYRVSGQSTQHQGVIPDISYPSIVDDKEIGESALPDSMPWDTIRPVVKDEANPFKPFLAQLKAQHDARTENNADFVYARERLALAQELMKEKTVSLNEAKRRAQQTSIENRQLAMENALRKSKGQEPLKELKREDENALPEEDDKTKPQDDAYLTESGHILLDYLNLNSAVAKH
notes: as for B2

Key:
Conditions in all cases: both partners purified
[1] = target: T1, RlpA-Δ32, fluorescently labeled; experiment: MST
[2] = target: T2, RlpA-Δ32·MltF2 complex (MST); experiment: MST
[3] = target: T3, RlpA-Δ32; experiment: SPR

Binder | Kd [1] [nM] | Kd [2] [nM] | Kd [3] [nM] | koff [3] [s⁻¹] | kon [3] [M⁻¹ s⁻¹]
B1 | 140 | 95 | 3850 | 0.00127 | 330
B2 | 240 | 309 | 1980 | 0.00218 | 1100
B3 | 430 | – | – | – | 5900
B4 | – | 35 | – | – | –
B5 | 77 | 150 | – | – | –
B6 | – | 110 | – | – | –
B7 | – | 260 | – | – | –
B8 | – | 150 | – | – | –
B9 | – | 220 | – | – | –
B10 | – | 240 | – | – | –
B11 | – | 1800 | – | – | –
B12 | – | 16000 | – | – | –
